To fix the notation:
B1: 4RP13-4-5C (designed binder)
hSIRPα IgV domain mutant: EEELQVIQPDKSVSVAAGESAILNCTVTSLIPVGPIQWFRGAGPARELIYNQKHQTFPRVTTVSEQTKRENRDFSISISNITPADAGTYYCVKFRKGSPDTEFKSGAGTELSVRAKPS
B2: 2RP-1-3E (designed binder)
hSIRPα IgV domain mutant: EEELQVIQPDKSVSVAAGESAILTCTVTSLWPVGPIQWFRGAGPARELIYNQKGQNFPRVTTVSESTKRFNMDFSISISNITPADAGTYYCVKFRKGSPDTEFKSGAGTELSVRAKPS
B3: 4RP13-3-7B (designed binder)
hSIRPα IgV domain mutant: EEELQVIQPDKSVSVAAGESAILTCTVTSLYPVGPIQWFRGAGPARELIYNQKRQTFPRVTTVSESTKRFNMDFSISISNITPADAGTYYCVKFRKGSPDTEFKSGAGTELSVRAKPS
B4: 2R-1-10B (designed binder)
hSIRPα IgV domain mutant: EEELQVIQPDKSVSVAAGESAILHCTVTSLIPVGPIQWFRGAGPARELIYNQKNLIFPRVTTVSESGKRENMDFSISISNITPADAGTYYCVKFRKGSPDTEFKSGAGTELSVRAKPS
B5: 2R-1-4B (designed binder)
hSIRPα IgV domain mutant: EEELQVIQPDKSVSVAAGESAILHCTVTSLAPVGPIQWFRGAGPARELIYNQKLDSFPRVTTVSESTKRESMDFSISISNITPADAGTYYCVKFRKGSPDTEFKSGAGTELSVRAKPS
B6: 4RP13-3-10B (designed binder)
hSIRPα IgV domain mutant: EEELQVIQPDKSVSVAAGESAILHCTVTSLYPVGPIQWFRGAGPARELIYNQKGRRFPRVTTVSESTKRANMDFSISISNITPADAGTYYCVKFRKGSPDTEFKSGAGTELSVRAKPS
B7: 4RP13-3-4D (designed binder)
hSIRPα IgV domain mutant: EEELQVIQPDKSVSVAAGESAILHCTVTSLLPVGPIQWFRGAGPARELIYNQKSKVFPRVTTVSESTKRRNMDFSISISNITPADAGTYYCVKFRKGSPDTEFKSGAGTELSVRAKPS
B8: 2R-1-7B (designed binder)
hSIRPα IgV domain mutant: EEELQVIQPDKSVSVAAGESAILHCIVTSLIPVGPIQWFRGAGPARELIYNQKILTFPRVTTVSESTKRENYDFSISISNITPADAGTYYCVKFRKGSPDTEFKSGAGTELSVRAKPS
B9: 4RP13-5-6G (designed binder)
hSIRPα IgV domain mutant: EEELQVIQPDKSVSVAAGESAILRCTVTSLTPVGPIQWFRGAGPARELIYNQKAKQFPRVTTVSESTKRENMIFSISISNITPADAGTYYCVKFRKGSPDTEFKSGAGTELSVRAKPS

The test concerns the target T1, mouse CD47 (mouse) (UniProt Q61735).
T1 sequence (looked up): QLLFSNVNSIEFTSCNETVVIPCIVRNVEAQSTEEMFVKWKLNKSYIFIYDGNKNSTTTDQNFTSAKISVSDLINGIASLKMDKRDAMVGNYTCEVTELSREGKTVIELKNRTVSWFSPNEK
Nature of the test: ELISA, coated mouse CD47 ECD Fc, supernatant, anti-c-Myc HRP. (An ELISA detects its analyte on a solid surface through an enzyme-linked reagent.)
The molecule B1 came in with a mCD47 binding (OD) of 0.116 OD. The same measure for B2: 0.113 OD. Under B3 stands 0.152 OD; under B4, 0.086 OD; under B5, 0.082 OD.

For the molecule B6, the mCD47 binding (OD) worked out at 0.17 OD. Under B7 stands 0.173 OD.

B8: the mCD47 binding (OD) came out at 0.087 OD.

Turning to B9, the mCD47 binding (OD) was found to be 0.149 OD.
